Target: T1, RAD52 (hRAD52) (human, UniProt P43351 1-418)
T1 sequence: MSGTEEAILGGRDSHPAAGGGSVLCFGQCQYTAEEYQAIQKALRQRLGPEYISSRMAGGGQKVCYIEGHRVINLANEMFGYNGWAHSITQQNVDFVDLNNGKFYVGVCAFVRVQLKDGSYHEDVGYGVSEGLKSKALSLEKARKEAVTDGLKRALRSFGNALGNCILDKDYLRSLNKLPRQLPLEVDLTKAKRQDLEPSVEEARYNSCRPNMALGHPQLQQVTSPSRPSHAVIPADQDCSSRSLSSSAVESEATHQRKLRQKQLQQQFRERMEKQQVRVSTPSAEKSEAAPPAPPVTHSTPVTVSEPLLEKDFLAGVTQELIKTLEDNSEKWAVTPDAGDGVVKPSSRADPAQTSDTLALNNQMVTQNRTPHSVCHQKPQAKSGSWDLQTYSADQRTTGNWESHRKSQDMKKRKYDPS
Test: EMSA; higher efficiency than unmodified N1; 1 mM Mg2+; source data at top RAD52 level (360, unit not shown): 97.3 and 99.2; EMSA: 25 mM Tris-HCl pH 7.5, 1 mM MgCl2, 1 mM DTT, 50 ug/mL BSA, 50 or 300 mM NaCl and/or 0.5% NP-40, 15 min 37 C, 6% PAGE-TBE at 4 C; pull-down: Pierce magnetic RNA-protein pull-down kit
Conditions: protein: recombinant; tags: C-terminal 6xHis (pET28b); label: 5' maleimide-IR800 on oligo 1 (DNA); blunt

B1: 50-bp m5C DNA:RNA hybrid (oligo 1/oligo 3) (DNA:RNA)
DNA: ATCATCACCATAACGTCGATGTATCAACTTCGATTAGTCACACCAATTAA
RNA: UUAAUUGGUGUGACUAAUCGAAGUUGAUACAUCGACGUUAUGGUGAUGAU
modifications: m5C at every C of the RNA strand (positions 14, 19, 30, 33, 36; five m5C)
B1: binds.

Source: PMC7275041, “m5C modification of mRNA serves a DNA damage code to promote homologous recombination”
